Measurements: paper PMC7608914, “Bridging of nucleosome-proximal DNA double-strand breaks by PARP2 enhances its interaction with HPF1” (PLoS ONE, 2019)

Experiments:
[1] = biological target: T1, Alexa488-labeled PARP2-WT (human, UniProt Q9UGN5-2 1-570, Alexa Fluor 488 C5 maleimide (extent of labeling typically between 20 and 80%); labelled residue not stated); experiment: FRET or BRET; Alexa647-labeled HPF1 (acceptor) titrated from 18.5 μM to 0 μM into 1 μM Alexa488-labeled PARP2 (donor) alone or into the preformed PARP2–Nuc165 complex (1 μM / 100 nM); 50 mM Tris-HCl pH 8, 50 mM NaCl, 1 mM MgCl2, 0.1 mM EDTA, 0.1 mM TCEP, 0.01% NP-40; Hill model; settings: both partners purified
T1 construct: human Poly(ADP-ribose) Polymerase 2, isoform 2 cDNA in pET28b; the mutant made from this vector is called full-length; source: E. coli Rosetta2 (DE3) pLysS, purified (HisTrap, heparin, Superdex 200), then labelled

[2] = biological target: T2, Alexa488-labeled PARP2-QFRD (human, UniProt Q9UGN5-2 1-570, Q112R | F113D, Alexa Fluor 488 C5 maleimide (extent of labeling typically between 20 and 80%); labelled residue not stated); experiment: as above; settings: both partners purified
T2 construct: human Poly(ADP-ribose) Polymerase 2, isoform 2 cDNA in pET28b, Q112R/F113D double point mutant; source: E. coli Rosetta2 (DE3) pLysS, purified (HisTrap, heparin, Superdex 200), then labelled

Kd [1]: > 3 µM | Kd [2]: > 10 µM
B1: Alexa647-labeled HPF1 (natural protein, human, UniProt Q9NWY4 1-346, looked up)
chain: MVGGGGKRRPGGEGPQCEKTTDVKKSKFCEADVSSDLRKEVENHYKLSLPEDFYHFWKFCEELDPEKPSDSLSASLGLQLVGPYDILAGKHKTKKKSTGLNFNLHWRFYYDPPEFQTIIIGDNKTQYHMGYFRDSPDEFPVYVGINEAKKNCIIVPNGDNVFAAVKLFLTKKLREITDKKKINLLKNIDEKLTEAARELGYSLEQRTVKMKQRDKKVVTKTFHGAGLVVPVDKNDVGYRELPETDADLKRICKTIVEAASDEERLKAFAPIQEMMTFVQFANDECDYGMGLELGMDLFCYGSHYFHKVAGQLLPLAYNLLKRNLFAEIIEEHLANRSQENIDQLAA
modifications: Alexa Fluor 647 C2 maleimide (extent of labeling typically between 20 and 80%); labelled residue not stated
notes: human HPF1; cDNA amplified by PCR and cloned between the Nde1 and Xho1 sites of pET28a; also called HPF1_Alexa647; HPF1_A647; source: E. coli Rosetta2 (DE3) pLysS, purified (HisTrap, Superdex 75), then labelled
